Experimental data taken from the Immune Epitope Database (IEDB).

How the values were obtained:
[1] = target: HLA-B*40:01; experiment: IEDB peptide-MHC binding, purified MHC/competitive/radioactivity; filed as Kd, often an IC50 or EC50 that approximates it; ≥ and ≤ were set here for values at or beyond the usual limits of such assays
[2] = target: HLA-B*44:03; experiment: as above
[3] = target: HLA-B*44:02; experiment: as above
[4] = target: HLA-B*40:02; experiment: as above
[5] = target: HLA-B*45:01; experiment: as above
[6] = target: HLA-B*18:01; experiment: as above
[7] = target: HLA-B*45:06; experiment: IEDB peptide-MHC binding, purified MHC/competitive/fluorescence; filed as Kd, often an IC50 or EC50 that approximates it; ≥ and ≤ were set here for values at or beyond the usual limits of such assays; settings: source organism: Human herpesvirus 4 strain B95-8
[8] = target: HLA-B*83:01; experiment: as above; settings: source organism: Human herpesvirus 4 strain B95-8
[9] = target: HLA-B*15:42; experiment: as above; settings: source organism: Human herpesvirus 4 strain B95-8
[10] = target: HLA-B*18:01; experiment: IEDB peptide-MHC binding, purified MHC/direct/fluorescence; filed as Kd, often an IC50 or EC50 that approximates it; ≥ and ≤ were set here for values at or beyond the usual limits of such assays
[11] = target: HLA-B*40:01; experiment: as above; settings: source organism: West Nile virus
[12] = target: HLA-A*26:01; experiment: IEDB peptide-MHC binding, purified MHC/competitive/fluorescence; filed as Kd, often an IC50 or EC50 that approximates it; ≥ and ≤ were set here for values at or beyond the usual limits of such assays; settings: source organism: Bacillus anthracis str. A0488
[13] = target: HLA-B*51:01; experiment: as above
[14] = target: HLA-B*44:02; experiment: IEDB peptide-MHC binding, purified MHC/direct/fluorescence; filed as Kd, often an IC50 or EC50 that approximates it; ≥ and ≤ were set here for values at or beyond the usual limits of such assays; settings: source organism: Dengue virus
[15] = target: HLA-B*15:01; experiment: IEDB peptide-MHC binding, purified MHC/competitive/fluorescence; filed as Kd, often an IC50 or EC50 that approximates it; ≥ and ≤ were set here for values at or beyond the usual limits of such assays; settings: source organism: Bacillus anthracis str. A2012
[16] = target: HLA-A*24:03; experiment: IEDB peptide-MHC binding, purified MHC/direct/fluorescence; filed as Kd, often an IC50 or EC50 that approximates it; ≥ and ≤ were set here for values at or beyond the usual limits of such assays; settings: source organism: Entamoeba histolytica
[17] = target: HLA-B*46:01; experiment: IEDB peptide-MHC binding, purified MHC/competitive/fluorescence; filed as Kd, often an IC50 or EC50 that approximates it; ≥ and ≤ were set here for values at or beyond the usual limits of such assays; settings: source organism: Shigella flexneri 5 str. 8401
[18] = source organism: SARS coronavirus Tor2
[19] = source organism: Mammarenavirus juninense
[20] = source organism: Mammarenavirus lassaense
[21] = source organism: West Nile virus
[22] = source organism: Mammarenavirus brazilense
[23] = source organism: Lymphocytic choriomeningitis virus (strain Armstrong)

ADYSVLYNST
Kd [1, 18]: ≥ 69600 nM
Kd [2, 18]: ≥ 45700 nM
Kd [3, 18]: 1970 nM
Kd [4, 18]: ≥ 30200 nM
Kd [5, 18]: 768 nM
Kd [6, 18]: ≥ 70500 nM

CSDAFYPFY
Kd [7]: ≥ 5000 nM
Kd [8]: ≥ 5000 nM
Kd [9]: ≥ 5000 nM

DELPFVAPV
Kd ([10]; source organism: Burkholderia ambifaria AMMD): 0.6 nM

EDIDSVETL
Kd [1, 19]: 1880 nM
Kd [2, 19]: ≥ 28300 nM
Kd [3, 19]: 12300 nM
Kd [4, 19]: 1250 nM
Kd [5, 19]: ≥ 24300 nM
Kd [6, 19]: 14400 nM

EELITDVEFL
Kd [1, 20]: 3120 nM
Kd [2, 20]: 6370 nM
Kd [3, 20]: 5160 nM
Kd [4, 20]: 9850 nM
Kd [5, 20]: 17900 nM
Kd [6, 20]: 19000 nM

EERKNFLEL
Kd [11]: ≥ 20000 nM
Kd [10, 21]: 48.4 nM

EGIYKLSSM
Kd [12]: 43.1 nM

EPYPPKGPV
Kd ([13]; source organism: Vibrio vulnificus YJ016): 828 nM

FPSVRYQNI
Kd ([13]; source organism: Yersinia pestis KIM10+): 1020 nM

GDRWFLNRFT
Kd [1, 18]: ≥ 69600 nM
Kd [2, 18]: ≥ 70100 nM
Kd [3, 18]: ≥ 70200 nM
Kd [4, 18]: ≥ 70800 nM
Kd [5, 18]: ≥ 70000 nM
Kd [6, 18]: ≥ 70500 nM

GEDGCWYGM
Kd [14]: ≥ 20000 nM
Kd ([10]; source organism: Dengue virus): 1260 nM

GEPKMTKAL
Kd [1, 20]: 1770 nM
Kd [2, 20]: ≥ 49900 nM
Kd [3, 20]: ≥ 20300 nM
Kd [4, 20]: 178 nM
Kd [5, 20]: ≥ 68100 nM
Kd [6, 20]: ≥ 77500 nM

HENKNATWCL
Kd [1, 22]: 915 nM
Kd [2, 22]: 15300 nM
Kd [3, 22]: 4540 nM
Kd [4, 22]: 54.4 nM
Kd [5, 22]: 5060 nM
Kd [6, 22]: 16600 nM

IAIEFKSRF
Kd [15]: 279 nM

IEVALRTLLL
Kd [1, 23]: 1290 nM
Kd [2, 23]: 1830 nM
Kd [3, 23]: 9310 nM
Kd [4, 23]: 24.1 nM
Kd [5, 23]: ≥ 70000 nM
Kd [6, 23]: 1710 nM

IPVEPAFQV
Kd ([13]; source organism: Vibrio antiquarius): 254 nM

KETSYTTTI
Kd [1, 18]: 20.7 nM
Kd [2, 18]: 125 nM
Kd [3, 18]: 90.8 nM
Kd [4, 18]: 59.6 nM
Kd [5, 18]: 183 nM
Kd [6, 18]: ≥ 77500 nM

KHIKPIVEF
Kd [16]: 70.5 nM

LAMYHGQTY
Kd [17]: ≥ 20000 nM

LEQWNLVIGF
Kd [1, 18]: 3940 nM
Kd [2, 18]: 48.8 nM
Kd [3, 18]: 16.1 nM
Kd [4, 18]: 565 nM
Kd [5, 18]: 3980 nM
Kd [6, 18]: 155 nM

MEEPAPAGF
Kd [11]: 2570 nM
Kd [10, 21]: 19.8 nM

NECAQVLSEM
Kd [1, 18]: 801 nM
Kd [2, 18]: 121 nM
Kd [3, 18]: 253 nM
Kd [4, 18]: 12200 nM
Kd [5, 18]: 4950 nM
Kd [6, 18]: 177 nM

NENPGGYCL
Kd [1, 20]: 4920 nM
Kd [2, 20]: 259 nM
Kd [3, 20]: 152 nM
Kd [4, 20]: 278 nM
Kd [5, 20]: 178 nM
Kd [6, 20]: 73.1 nM
